B1: TRIM14 (parent)
chain: YARTPTLDPDTMHARLRLSADRLT
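Also: lentivirally expressed fusions sorted by FACS into six bins by GFP to DsRed ratio, PSI derived from sequencing read proportions per bin multiplied by bin number.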

In the data set the parent is B1. Kind of data set: protein stability index of a GFP-peptide fusion (GPS, HEK-293T) (PSI 1-6); higher = more stable. The settings on record: c terminus: a fixed tail appended.
For the variant YARTSTLDPDTMHARLRLSADRLT, the protein stability index amounted to 2.16.

For the variant YARTRTLDPDTMHARLRLSADRLT, the protein stability index is 1.98. With YARTPVLDPDTMHARLRLSADRLT the figure was 2.22. With YARTPLLDPDTMHARLRLSADRLT the figure was 2.56; with YARTPCLDPDTMHARLRLSADRLT, 2.34. With YARTPALDPDTMHARLRLSADRLT the figure was 2.64; with YARTPMLDPDTMHARLRLSADRLT, 2.71. With YARTPFLDPDTMHARLRLSADRLT, the protein stability index was determined as 2.24. With YARTPGLDPDTMHARLRLSADRLT the figure was 2.37. Consider YARTPRLDPDTMHARLRLSADRLT, for which the protein stability index amounted to 1.94. With YARTPILDPDTMHARLRLSADRLT the figure was 2.1; with YARTPHLDPDTMHARLRLSADRLT, 2.44; with YARTPDLDPDTMHARLRLSADRLT, 3.4.

As for YARTPWLDPDTMHARLRLSADRLT, the protein stability index was 2.79. With YARTPELDPDTMHARLRLSADRLT the figure was 2.94.

Consider YARTPYLDPDTMHARLRLSADRLT, for which the protein stability index stood at 1.94.

For the variant YARTPPLDPDTMHARLRLSADRLT, the protein stability index came out at 2.3. With YARTPNLDPDTMHARLRLSADRLT the figure was 1.96. For YARTPKLDPDTMHARLRLSADRLT the value was 2.33. For YARTPSLDPDTMHARLRLSADRLT the value was 2.28; for YARTPQLDPDTMHARLRLSADRLT, 2.33; for YARTPTLPPDTMHARLRLSADRLT, 2.41.

As for YARTPTLKPDTMHARLRLSADRLT, the protein stability index was 2.95. With YARTPTLEPDTMHARLRLSADRLT the figure was 2.26; with YARTPTLWPDTMHARLRLSADRLT, 2.08; with YARTPTLIPDTMHARLRLSADRLT, 2.24. For YARTPTLNPDTMHARLRLSADRLT the value was 2.58; for YARTPTLAPDTMHARLRLSADRLT, 2.15. Regarding YARTPTLFPDTMHARLRLSADRLT, the protein stability index stood at 2.5. For YARTPTLYPDTMHARLRLSADRLT the value was 1.8; for YARTPTLLPDTMHARLRLSADRLT, 2.41. For YARTPTLQPDTMHARLRLSADRLT the value was 2.52; for YARTPTLMPDTMHARLRLSADRLT, 2.22.

As to YARTPTLTPDTMHARLRLSADRLT, the protein stability index was 2.45. With YARTPTLGPDTMHARLRLSADRLT the figure was 2.18.

In the case of YARTPTLSPDTMHARLRLSADRLT, the protein stability index is 2.5.

Consider YARTPTLRPDTMHARLRLSADRLT, for which the protein stability index stood at 1.98. For YARTPTLVPDTMHARLRLSADRLT the value was 2.78; for YARTPTLHPDTMHARLRLSADRLT, 1.87; for YARTPTLCPDTMHARLRLSADRLT, 2.1. For YARTPTEDPDTMHARLRLSADRLT the value was 3.65; for YARTPTQDPDTMHARLRLSADRLT, 2.81. With YARTPTTDPDTMHARLRLSADRLT the figure was 2.46.

With YARTPTDDPDTMHARLRLSADRLT, the protein stability index was found to be 3.54. With YARTPTWDPDTMHARLRLSADRLT the figure was 2.31; with YARTPTMDPDTMHARLRLSADRLT, 2.81.

With YARTPTGDPDTMHARLRLSADRLT, the protein stability index is 2.44. With YARTPTFDPDTMHARLRLSADRLT the figure was 2.54.

As for YARTPTSDPDTMHARLRLSADRLT, the protein stability index turned out to be 2.98. With YARTPTADPDTMHARLRLSADRLT the figure was 2.75; with YARTPTNDPDTMHARLRLSADRLT, 2.54. Turning to YARTPTCDPDTMHARLRLSADRLT, the protein stability index came to 2.1. Take YARTPTVDPDTMHARLRLSADRLT: the protein stability index came out at 3.33. With YARTPTHDPDTMHARLRLSADRLT, the protein stability index turned out to be 2.65.

YARTPTKDPDTMHARLRLSADRLT: the protein stability index came to 2.56. With YARTPTRDPDTMHARLRLSADRLT the figure was 2.76.

As to YARTPTIDPDTMHARLRLSADRLT, the protein stability index was determined as 1.94. With YARTPTYDPDTMHARLRLSADRLT the figure was 2.63. For YATTPTLDPDTMHARLRLSADRLT the value was 3.05; for YAVTPTLDPDTMHARLRLSADRLT, 3; for YAYTPTLDPDTMHARLRLSADRLT, 1.83. As for YAGTPTLDPDTMHARLRLSADRLT, the protein stability index was determined as 2.78. For YAITPTLDPDTMHARLRLSADRLT the value was 2.57; for YAATPTLDPDTMHARLRLSADRLT, 2.66. With YAKTPTLDPDTMHARLRLSADRLT the figure was 2.87; with YAQTPTLDPDTMHARLRLSADRLT, 3.81; with YANTPTLDPDTMHARLRLSADRLT, 3.14. For YALTPTLDPDTMHARLRLSADRLT the value was 3.34.

Turning to YASTPTLDPDTMHARLRLSADRLT, the protein stability index is 2.86. With YAETPTLDPDTMHARLRLSADRLT the figure was 2.18; with YADTPTLDPDTMHARLRLSADRLT, 3.8. With YAMTPTLDPDTMHARLRLSADRLT the figure was 2.53; with YACTPTLDPDTMHARLRLSADRLT, 3.02; with YAPTPTLDPDTMHARLRLSADRLT, 1.76. For YAHTPTLDPDTMHARLRLSADRLT, the protein stability index amounted to 3.12. For YAWTPTLDPDTMHARLRLSADRLT the value was 1.92; for YAFTPTLDPDTMHARLRLSADRLT, 1.85. With YARTPTLDPDVMHARLRLSADRLT the figure was 2.36. With YARTPTLDPDFMHARLRLSADRLT the figure was 2.04; with YARTPTLDPDHMHARLRLSADRLT, 2.12; with YARTPTLDPDCMHARLRLSADRLT, 2.94. For the variant YARTPTLDPDSMHARLRLSADRLT, the protein stability index was 2.66. For YARTPTLDPDQMHARLRLSADRLT the value was 2.81; for YARTPTLDPDKMHARLRLSADRLT, 3.29. With YARTPTLDPDPMHARLRLSADRLT the figure was 2.79; with YARTPTLDPDGMHARLRLSADRLT, 2.39. For YARTPTLDPDRMHARLRLSADRLT the value was 3.65; for YARTPTLDPDMMHARLRLSADRLT, 2.12; for YARTPTLDPDIMHARLRLSADRLT, 2.26. Turning to YARTPTLDPDEMHARLRLSADRLT, the protein stability index is 3.46. With YARTPTLDPDLMHARLRLSADRLT the figure was 2.27; with YARTPTLDPDAMHARLRLSADRLT, 2.68. With YARTPTLDPDDMHARLRLSADRLT the figure was 3.07; with YARTPTLDPDNMHARLRLSADRLT, 2.45.

The values above are taken from the supplement of paper PMC10567573.
